Results: article PMC9203827

Target: papain (UniProt P00784)
Chain of UniProt P00784 (P00784 134-345): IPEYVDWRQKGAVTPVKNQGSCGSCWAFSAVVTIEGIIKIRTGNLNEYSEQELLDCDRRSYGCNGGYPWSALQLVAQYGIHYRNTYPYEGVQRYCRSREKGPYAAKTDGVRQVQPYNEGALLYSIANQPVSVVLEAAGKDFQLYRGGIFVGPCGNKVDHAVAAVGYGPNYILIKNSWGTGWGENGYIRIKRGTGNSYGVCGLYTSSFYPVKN

recombinant cystatin-B from the red piranha Pygocentrus nattereri (natural protein)
inhibition of papain proteolytic activity on azocasein (absorbance); rCYST-B 0-80 μg (text: μg/μL) pre-incubated with 10 μL papain (0.1 μg/μL) at 28°C for 30 min; inhibition rises from 30 μg/μL: 100%
